# T1: Human Hsf1 wild type (human), Q00613
# T1 chain: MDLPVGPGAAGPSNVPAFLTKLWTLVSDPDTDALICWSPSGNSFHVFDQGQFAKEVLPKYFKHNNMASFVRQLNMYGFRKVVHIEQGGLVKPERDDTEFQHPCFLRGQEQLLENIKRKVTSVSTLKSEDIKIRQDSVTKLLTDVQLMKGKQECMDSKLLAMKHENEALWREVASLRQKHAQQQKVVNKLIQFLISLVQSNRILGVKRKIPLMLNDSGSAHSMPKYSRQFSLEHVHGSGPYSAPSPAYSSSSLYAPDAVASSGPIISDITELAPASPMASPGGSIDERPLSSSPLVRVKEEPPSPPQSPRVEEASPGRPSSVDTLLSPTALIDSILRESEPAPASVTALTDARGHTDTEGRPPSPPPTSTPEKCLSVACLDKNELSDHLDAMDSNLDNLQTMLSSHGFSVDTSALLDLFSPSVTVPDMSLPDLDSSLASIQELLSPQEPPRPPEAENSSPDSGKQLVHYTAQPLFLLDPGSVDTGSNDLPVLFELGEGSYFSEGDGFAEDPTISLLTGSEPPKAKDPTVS
# Experiments:
# [1] = target: T1, Human Hsf1 wild type (human), Q00613; test: SEC; details: remark: other sources report otherwise
# SEC = target: the molecule itself; test: SEC
Binder,stoichiometry N [1],stoichiometry N (SEC)
"Human Hsf1 wild type, Q00613 1-529 (natural protein) MDLPVGPGAAGPSNVPAFLTKLWTLVSDPDTDALICWSPSGNSFHVFDQGQFAKEVLPKYFKHNNMASFVRQLNMYGFRKVVHIEQGGLVKPERDDTEFQHPCFLRGQEQLLENIKRKVTSVSTLKSEDIKIRQDSVTKLLTDVQLMKGKQECMDSKLLAMKHENEALWREVASLRQKHAQQQKVVNKLIQFLISLVQSNRILGVKRKIPLMLNDSGSAHSMPKYSRQFSLEHVHGSGPYSAPSPAYSSSSLYAPDAVASSGPIISDITELAPASPMASPGGSIDERPLSSSPLVRVKEEPPSPPQSPRVEEASPGRPSSVDTLLSPTALIDSILRESEPAPASVTALTDARGHTDTEGRPPSPPPTSTPEKCLSVACLDKNELSDHLDAMDSNLDNLQTMLSSHGFSVDTSALLDLFSPSVTVPDMSLPDLDSSLASIQELLSPQEPPRPPEAENSSPDSGKQLVHYTAQPLFLLDPGSVDTGSNDLPVLFELGEGSYFSEGDGFAEDPTISLLTGSEPPKAKDPTVS",3,
"Hsf1-S303E,S307E (natural protein) MDLPVGPGAAGPSNVPAFLTKLWTLVSDPDTDALICWSPSGNSFHVFDQGQFAKEVLPKYFKHNNMASFVRQLNMYGFRKVVHIEQGGLVKPERDDTEFQHPCFLRGQEQLLENIKRKVTSVSTLKSEDIKIRQDSVTKLLTDVQLMKGKQECMDSKLLAMKHENEALWREVASLRQKHAQQQKVVNKLIQFLISLVQSNRILGVKRKIPLMLNDSGSAHSMPKYSRQFSLEHVHGSGPYSAPSPAYSSSSLYAPDAVASSGPIISDITELAPASPMASPGGSIDERPLSSSPLVRVKEEPPEPPQEPRVEEASPGRPSSVDTLLSPTALIDSILRESEPAPASVTALTDARGHTDTEGRPPSPPPTSTPEKCLSVACLDKNELSDHLDAMDSNLDNLQTMLSSHGFSVDTSALLDLFSPSVTVPDMSLPDLDSSLASIQELLSPQEPPRPPEAENSSPDSGKQLVHYTAQPLFLLDPGSVDTGSNDLPVLFELGEGSYFSEGDGFAEDPTISLLTGSEPPKAKDPTVS",,3
